Test results published in patent publication US20110039770A1, “INHIBITORS OF PROTEIN KINASE C ISOFORMS AND USES THEREOF” (PHARMAGAP INC., priority 2005, published 2011).
Where a SMILES comes first, the peptide text is derived from it. [ ]: non-standard residue; d: D form.

Target: T1, PKC-ζ (Homo sapiens, UniProt Q05513)
T1 sequence (Q05513 1-592): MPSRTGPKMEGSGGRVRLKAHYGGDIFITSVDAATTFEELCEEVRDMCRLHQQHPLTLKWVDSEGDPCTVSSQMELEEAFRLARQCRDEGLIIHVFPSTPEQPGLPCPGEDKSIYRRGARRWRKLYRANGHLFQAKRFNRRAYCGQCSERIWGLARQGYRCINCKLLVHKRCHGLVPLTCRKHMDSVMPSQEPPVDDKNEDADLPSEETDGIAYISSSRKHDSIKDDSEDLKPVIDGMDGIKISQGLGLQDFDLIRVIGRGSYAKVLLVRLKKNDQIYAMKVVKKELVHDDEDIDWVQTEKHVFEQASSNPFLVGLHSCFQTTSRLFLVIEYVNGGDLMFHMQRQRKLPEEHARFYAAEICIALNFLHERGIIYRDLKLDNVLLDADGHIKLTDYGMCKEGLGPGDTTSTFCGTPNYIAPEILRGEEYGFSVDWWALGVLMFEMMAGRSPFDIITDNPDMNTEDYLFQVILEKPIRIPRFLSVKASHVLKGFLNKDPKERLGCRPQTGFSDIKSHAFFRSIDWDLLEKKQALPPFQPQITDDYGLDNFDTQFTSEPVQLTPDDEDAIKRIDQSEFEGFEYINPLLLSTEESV
Assay: ELISA-based competitive binding assay with purified PKC isoform
Set-up: key to Affinity for PKC isoform ζ: —: no detectable affinity; Low to very low affinity at 10X or 20X or both PRE concentrations in at least one cell line in the cell extract assay; Low affinity in purified isoform assay.; Moderate affinity at 10X or 20X or both PRE concentrations in at least one cell line in the cell extract assay.; High affinity at 10X or 20X or both PRE concentrations in at least one cell line in the cell extract assay; High affinity in purified isoform assay
Conditions: for Affinity for PKC isoform ζ: Purified isoform
Method: Peptides PRE 1, 2, 3, 4, 5, 6, 7, 8, 9, 10, 11, 12 and 13 (see Table 3) were tested for their ability to interfere with binding of PKC isoform-specific antibodies to their target PKC isoforms using a competitive binding assay and purified PKC isoforms.
Procedure: Competitive binding was assessed using a 96 well plate ELISA-based assay as described below.
Greiner 96 well ELISA plates were coated with the appropriate PKC isoform diluted in PBSN (PBS with Calcium/Magnesium+0.05% Sodium azide w/w). 50 μL/well at 250 ng/mL was used. Control wells contained PBSN only. Plates were incubated overnight at 4° C.
The plates were washed 3 times with 200 μL of dH2O per well, then 100 μL of blocking solution was added per well and the plate incubated for 1 h at 37° C. The washing steps with dH2O were repeated and 50 μL of the appropriate PRE solution (PRE stock solution [20 mM in DMSO] diluted in PBSN) was added and the plate incubated for 1 h at room temperature.
After incubation, 5 μL of 1.1:400 anti-PKC (isoform specific antibody) was added per well (to provide a final concentration of 1:4000). For PKC-epsilon, 1.1:800 dilution was used and for PKC-zeta a 1.1:100 dilution was used due to high and low binding affinity, respectively. The plates were then incubated 1 h at room temperature, followed by washing with dH2O as described above.
50 μL of 1:1000 dilution of Alkaline Phosphatase (AP) conjugated antibody (anti-rabbit for all except zeta, which was anti-goat) was then added and the plate incubated for 1 h at room temperature. Washing with dH2O was then repeated. Finally, 100 μL of pNPP solution in pNPP buffer (2 mM MgCl2, 100 mM Sodium bicarbonate in water, pH 9.8) was added to all wells and incubated for 8 minutes for α, βI, βII ε, and ζ, or for 15-20 mins for δ (until sufficient coloration is observed). The reaction was stopped by addition of Stop solution (2N NaOH) and the absorbance at 405 nm was read on a Galaxy Plate reader.
Controls were PKC without PRE; blank controls, and controls containing the final concentrations of DMSO used for solubilizing the PREs. The non-specific binding capacity related to DMSO was also measured.
The antibodies used were as follows: anti-PKC α (Cat. No. SC-208); anti-PKC βI (Cat. No. SC-209); anti-PKC βII (Cat. No. SC-210); anti-PKC δ (Cat. No. SC-213); anti-PKC ε (Cat. No. SC-214); anti-PKC ζ (Cat. No. SC-216-G) (all from Santa Cruz Biotechnology, Inc.). The AP-conjugated antibodies were obtained from Jackson Immuno Research Laboratories (West Grove, Pa.).
Calculations: The OD values measured at 405 nm represent the free PKC coated per well.
OD405 PKC alone−Blank OD405 of each sample=OD405 coated isoform
(OD405 of sample X/OD405 coated isoform)×100=% n that represents the percentage of X binding compared to control.
100-% n measures the relative binding capacity of X towards the tested isoform.
The apparent binding capacity of the DMSO samples was then subtracted from X binding capacity.
All measurements were made in triplicate and the values in the table represent the averaged calculated binding capacity values after subtraction of the DMSO apparent binding capacity (averaged from 12 values, respectively 10.80, 11.20 and 16.40 corresponding to the concentrations of DMSO used to dilute the […] at 200, 100 and 50 μM respectively). The results allow for quantitative comparison of the binding capacity of each PRE towards an individual isoform within each table, but not among isoforms due to differences in sensitivity of the specific antibodies toward the secondary antibody. This applies particularly to PKC-delta. As noted above, the colour development duration was increased 2-3 times and, as a result, the OD405 measurements may be overestimated for this isoform.

[1] = PRE 50 μM, purified PKC-ζ, read-out: calculated binding capacity (100-% n, DMSO apparent binding subtracted)
[2] = PRE 100 μM, purified PKC-ζ, read-out: calculated binding capacity (100-% n, DMSO apparent binding subtracted)

Molecule | Affinity for PKC isoform ζ | other results
CC[C@H](C)[C@H](NC(=O)[C@H](CO)NC(=O)[C@@H](NC(=O)CNC(=O)[C@@H](NC(=O)[C@H](CC(C)C)NC(=O)[C@H](CC(N)=O)NC(=O)[C@H](CCC(N)=O)NC(=O)[C@H](C)NC(=O)[C@H](CC(=O)O)NC(=O)[C@H](CCCCN)NC(C)=O)[C@@H](C)CC)[C@@H](C)CC)C(N)=O [PRE 4, Ac-KDAQNLIGISI-NH2] (Ac-KDAQNLIGISI-NH2) | — | inhibition at 50 µM [1]: 0%; inhibition at 100 µM [2]: 0%
CC[C@H](C)[C@H](NC(=O)[C@H](CO)NC(=O)[C@@H](NC(=O)CNC(=O)[C@@H](NC(=O)[C@H](CC(C)C)NC(=O)[C@H](CC(N)=O)NC(=O)[C@H](CCC(N)=O)NC(=O)[C@H](C)NC(=O)[C@H](CC(=O)O)NC(=O)[C@H](CCCCN)NC(=O)CNC(=O)CNC(=O)[C@H](CCCCN)NC(=O)[C@@H](NC(=O)[C@H](CCC(=O)O)NC(=O)[C@H](CCC(N)=O)NC(=O)[C@@H](NC(=O)CNC(=O)[C@H](CCCCN)NC(=O)[C@H](C)NC(C)=O)[C@@H](C)CC)C(C)C)[C@@H](C)CC)[C@@H](C)CC)C(N)=O [PRE 5] (Ac-AKGIQEVKGGKDAQNLIGISI-NH2) | — | inhibition at 50 µM [1]: 0%; inhibition at 100 µM [2]: 0%; inhibition at 200 µM (PRE 200 μM, purified PKC-ζ, read-out: calculated binding capacity (100-% n, DMSO apparent binding subtracted)): 0%
Ac-RDAQNLIGISI-NH2 [PRE 11] | — | 
Ac-ISIGILNQADK-NH2 [PRE 10] | — | 
CC[C@H](C)[C@H](NC(=O)[C@H](CO)NC(=O)[C@@H](NC(=O)CNC(=O)[C@@H](NC(=O)[C@H](CC(C)C)NC(=O)[C@H](CC(N)=O)NC(=O)[C@H](CCC(N)=O)NC(=O)[C@H](C)NC(=O)[C@H](CC(=O)O)NC(=O)CNC(=O)CNC(=O)[C@H](CCCCN)NC(=O)[C@@H](NC(=O)[C@H](CCC(=O)O)NC(=O)[C@H](CCC(N)=O)NC(=O)[C@@H](NC(=O)CNC(=O)[C@H](CCCCN)NC(=O)[C@H](C)NC(C)=O)[C@@H](C)CC)C(C)C)[C@@H](C)CC)[C@@H](C)CC)C(N)=O [PRE 3] (Ac-AKGIQEVKGGDAQNLIGISI-NH2) | H | 
Ac-KDAQNLI-NH2 [PRE 12] | — | calculated binding capacity (100-% n, DMSO apparent binding subtracted) (PRE 50 μM, purified PKC-ζ): 4.20%; calculated binding capacity (100-% n, DMSO apparent binding subtracted) (PRE 100 μM, purified PKC-ζ): 8.77%; calculated binding capacity (100-% n, DMSO apparent binding subtracted) (PRE 200 μM, purified PKC-ζ): 0.33%
RRKKGGKDFVVKR [PRE 1] | — | calculated binding capacity (100-% n, DMSO apparent binding subtracted) (PRE 50 μM, purified PKC-ζ): 4.11%
Ac-ISIGILQNADK-NH2 (not fully specified; printed as Ac-ISIGILQNADK-NH2) [PRE 7] | — | calculated binding capacity (100-% n, DMSO apparent binding subtracted) (PRE 50 μM, purified PKC-ζ): 1.83%; calculated binding capacity (100-% n, DMSO apparent binding subtracted) (PRE 200 μM, purified PKC-ζ): 1.54%
Ac-isigilqnadk-NH2 (Ac-[dI][dS][dI]G[dI][dL][dQ][dN][dA][dD][dK]-NH2; SMILES CC[C@@H](C)[C@@H](NC(C)=O)C(=O)N[C@H](CO)C(=O)N[C@@H](C(=O)NCC(=O)N[C@@H](C(=O)N[C@H](CC(C)C)C(=O)N[C@H](CCC(N)=O)C(=O)N[C@H](CC(N)=O)C(=O)N[C@H](C)C(=O)N[C@H](CC(=O)O)C(=O)N[C@H](CCCCN)C(N)=O)[C@H](C)CC)[C@H](C)CC) [PRE 9] | — | 
Ac-RDAQNLI-NH2 [PRE 13] | — | calculated binding capacity (100-% n, DMSO apparent binding subtracted) (PRE 200 μM, purified PKC-ζ): 4.29%
ILEDKGGDAQNLIGISI [PRE 8] | — | 
Ac-KDANQLIGISI-NH2 [PRE 6] | — | 
